For assay [1], the target named is T1, Growth and differentiation factor-8 (GDF-8), mature human (human, UniProt O14793 267-375, conjugated to biotin in the ActRIIB ELISA and in the Fc gamma receptor SPR (site not stated)). Briefly: cell-based or functional assay.
Assay [2] concerns the target T1, Growth and differentiation factor-8 …. Briefly: SPR (BIACORE 3000), antibody captured with anti-mouse IgG, GDF-8 flowed, 1:1 Langmuir fit.
The target is the same in assay [3]. Briefly: competition ELISA: antibody inhibits biotin-GDF-8 (10 ng/ml) binding to coated ActRIIB-Fc.
The target is the same in assay [4]. As to the kind of experiment: SPR (BIACORE 3000), captured antibody, GDF-8 flowed, 1:1 Langmuir fit. A general note: In SPR one partner is held on a chip, and binding of the other changes the refractive index at the surface.
Assay [5] has the same target. Briefly: SPR.
Assay [6] shares this target. As to the kind of experiment: competition ELISA (GDF-8 / ActRIIB-Fc).
The target is the same in assay [7]. Briefly: cell-based or functional assay. The source holds these as a separate data set.
For assay [8] the target is unchanged. Briefly: competition ELISA.
The target is the same in assay [9]. Briefly: SPR (BIACORE 3000), antibody captured on protein A, GDF-8 flowed, 1:1 Langmuir fit.
The target of assay [10] is T2, CD32b (Fc gamma receptor) (UniProt P31994 43-217).
T2 sequence (looked up): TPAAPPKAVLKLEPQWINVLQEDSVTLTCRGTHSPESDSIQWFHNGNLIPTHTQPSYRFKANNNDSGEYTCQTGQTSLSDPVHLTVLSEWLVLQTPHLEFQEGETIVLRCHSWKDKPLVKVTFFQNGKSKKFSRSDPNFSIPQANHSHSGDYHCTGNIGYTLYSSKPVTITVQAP
Briefly: SPR (Biacore T200), OGD1.0.0 captured on biotin-GDF-8 on an SA chip, receptor flowed.

For assay [11], the target named is T3, CD32a-131H (Fc gamma receptor) (UniProt P12318 34-217).
T3 construct: The 131H allotype is as printed
T3 sequence (looked up): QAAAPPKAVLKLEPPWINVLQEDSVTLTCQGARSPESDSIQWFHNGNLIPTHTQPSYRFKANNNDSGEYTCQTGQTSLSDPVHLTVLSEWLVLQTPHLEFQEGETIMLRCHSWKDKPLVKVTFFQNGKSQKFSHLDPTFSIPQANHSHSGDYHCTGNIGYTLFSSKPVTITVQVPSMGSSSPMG
Briefly: SPR (Biacore T200), OGD1.0.0 captured on biotin-GDF-8 on an SA chip, receptor flowed, single-cycle kinetics.

Another assay has as its target CD64 (Fc gamma receptor) (UniProt P12314 16-288, limits assumed). The assay is described as above.
In assay [12] the target is T4, CD16a-158V (Fc gamma receptor) (UniProt P08637 17-208).
T4 construct: The 158V allotype is as printed
Described as above.

B1: Murine anti-GDF-8 monoclonal antibody (parental murine antibody) (antibody, V domains shown)
VH: EVQLVESGGGLVKPGGSLKLSCAASGFTFSSYAMSWVRQTPEKRLEWVATISSGGSYTSYPDSVKGRFTISRDNAKNTLYLQMSSLRSEDTAMYYCARQDYAMNYWGQGTSVTVSS
VL: DIEMTQSHKFMSTSVGDRVSITCKASQDVSTAVAWYQQKPGQSPKLLLYSASYRYTGVPDRFTGSGSGTDFTFTISSVQAEDLAVYYCQQHYSTPWTFGGGTKLEIK
notes: also called mouse anti-GDF-8 antibody
By Kd is commonly meant the concentration at which binding is half-saturated. What is called IC50 is the point on the concentration scale where inhibition reaches its midpoint. The low end stands for greater potency, the high end for weaker potency. In the case of B1, in assay [1], the “CAGA EC50” value was 33.5 nM. Moreover, the Kd in [2] was 0.0218 nM. This molecule yielded a half-maximal inhibitory concentration (IC50) in assay [3] of 0.165 nM.

B2: Chimeric mouse-human anti-GDF-8 antibody (murine variable domains and human constant domains) (antibody, human IgG1, V domains shown)
VH: EVQLVESGGGLVKPGGSLKLSCAASGFTFSSYAMSWVRQTPEKRLEWVATISSGGSYTSYPDSVKGRFTISRDNAKNTLYLQMSSLRSEDTAMYYCARQDYAMNYWGQGTSVTVSS
VL: DIEMTQSHKFMSTSVGDRVSITCKASQDVSTAVAWYQQKPGQSPKLLLYSASYRYTGVPDRFTGSGSGTDFTFTISSVQAEDLAVYYCQQHYSTPWTFGGGTKLEIK
notes: also called Chimeric antibody
Consider B2, for which the dissociation constant Kd in [4] was 2.99 pM. In addition, the “CAGA EC50” value in assay [1] worked out at 24.2 nM. The molecule also gave a 50% inhibitory concentration (IC50) in assay [3] of 0.165 nM.

B3: OGD1.0.2 humanized anti-GDF-8 antibody (VH0 and VL2) (antibody, V domains shown)
VH: EVQLLESGGGLVQPGGSLRLSCAASGFTFSSYAMSWVRQAPGKGLEWVSTISSGGSYTSYPDSVKGRFTISRDNSKNTLYLQMNSLRAEDTAVYYCAKQDYAMNYWGQGTLVTVSS
VL: DIQMTQSPSSLSASVGDRVTITCKASQDVSTAVAWYQQKPGKAPKLLIYAASSLQSGVPSRFSGSGSGTDFTLTISSLQPEDFATYYCQQHYSTPWTFGGGTKVEIK
notes: Intact antibody produced in COS-1 cells
Take B3: the equilibrium dissociation constant (Kd) in assay [5] turned out to be 1.46 pM. For the same molecule, the “IC50 by ELISA compared to OGD1.0.0” value in assay [6] is 0.91 fold of OGD1.0.0. The “IC50 by reporter gene assay compared to OGD1.0.0” value in assay [7] is 1.03 fold of OGD1.0.0.

B4: OGD1.0.3 humanized anti-GDF-8 antibody (VH0 and VL3) (antibody, V domains shown)
VH: EVQLLESGGGLVQPGGSLRLSCAASGFTFSSYAMSWVRQAPGKGLEWVSTISSGGSYTSYPDSVKGRFTISRDNSKNTLYLQMNSLRAEDTAVYYCAKQDYAMNYWGQGTLVTVSS
VL: DIQMTQSPSSLSASVGDRVTITCRASQSISTALNWYQQKPGKAPKLLIYSASSLQSGVPSRFSGSGSGTDFTLTISSLQPEDFATYYCQQSYSTPWTFGGGTKVEIK
In assay [5], B4 showed a dissociation constant (Kd) of 3.17 pM. Besides, in assay [6], the “IC50 by ELISA compared to OGD1.0.0” value is 0.96 fold of OGD1.0.0. Also, the “IC50 by reporter gene assay compared to OGD1.0.0” value in assay [7] was 0.85 fold of OGD1.0.0.

B5: OGD1.3.0 humanized anti-GDF-8 antibody (VH3 and VL0) (antibody, V domains shown)
VH: EVQLLESGGGLVQPGGSLRLSCAASGFTFSSYAMSWVRQAPGKGLEWVSAISSSGGYTYYADSVKGRFTISRDNSKNTLYLQMNSLRAEDTAVYYCAKQDYAMNYWGQGTLVTVSS
VL: DIQMTQSPSSLSASVGDRVTITCKASQDVSTAVAWYQQKPGKAPKLLIYSASYRYTGVPSRFSGSGSGTDFTLTISSLQPEDFATYYCQQHYSTPWTFGGGTKVEIK
Consider B5, for which the binding result in assay [8] is “binds”.

B6: OGD1.0.5 humanized anti-GDF-8 antibody (VH0 and VL5) (antibody, V domains shown)
VH: EVQLLESGGGLVQPGGSLRLSCAASGFTFSSYAMSWVRQAPGKGLEWVSTISSGGSYTSYPDSVKGRFTISRDNSKNTLYLQMNSLRAEDTAVYYCAKQDYAMNYWGQGTLVTVSS
VL: DIQMTQSPSSLSASVGDRVTITCRASQSISTALNWYQQKPGKAPKLLIYSASSLQSGVPSRFSGSGSGTDFTLTISSLQPEDFATYYCQQSYSTPLTFGGGTKVEIK
notes: VL5 is VL3 with W96L
As to B6, the affinity in assay [5], expressed as Kd, was 57 pM. Also, the “IC50 by ELISA compared to OGD1.0.0” value in assay [6] is 5.94 fold of OGD1.0.0.

B7: OGD1.4.0 humanized anti-GDF-8 antibody (VH4 and VL0) (antibody, V domains shown)
VH: EVQLLESGGGLVQPGGSLRLSCAASGFTFSSYAMSWVRQAPGKGLEWVSTISSGGSYTSYPDSVKGRFTISRDNSKNTLYLQMNSLRAEDTAVYYCAKQDYAFDYWGQGTLVTVSS
VL: DIQMTQSPSSLSASVGDRVTITCKASQDVSTAVAWYQQKPGKAPKLLIYSASYRYTGVPSRFSGSGSGTDFTLTISSLQPEDFATYYCQQHYSTPWTFGGGTKVEIK
notes: VH4 carries M99F and N101D in CDR3
Take B7: in [5], the equilibrium dissociation constant (Kd) is 284 pM. Further, the “IC50 by ELISA compared to OGD1.0.0” value in assay [6] is 1.71 fold of OGD1.0.0. The “IC50 by reporter gene assay compared to OGD1.0.0” value in assay [7] was 7.5 fold of OGD1.0.0.

B8: OGD1.0.4 humanized anti-GDF-8 antibody (VH0 and VL4) (antibody, V domains shown)
VH: EVQLLESGGGLVQPGGSLRLSCAASGFTFSSYAMSWVRQAPGKGLEWVSTISSGGSYTSYPDSVKGRFTISRDNSKNTLYLQMNSLRAEDTAVYYCAKQDYAMNYWGQGTLVTVSS
VL: not shown
notes: VL4 is VL3 with S50A
With B8, the Kd in assay [5] was 2.46 pM. The “IC50 by ELISA compared to OGD1.0.0” value in assay [6] was 0.61 fold of OGD1.0.0. The “IC50 by reporter gene assay compared to OGD1.0.0” value in assay [7] is 1.54 fold of OGD1.0.0.

B9: OGD1.0.0 humanized anti-GDF-8 antibody (VH0 and VL0) (antibody, human IgG1, kappa)
heavy: EVQLLESGGGLVQPGGSLRLSCAASGFTFSSYAMSWVRQAPGKGLEWVSTISSGGSYTSYPDSVKGRFTISRDNSKNTLYLQMNSLRAEDTAVYYCAKQDYAMNYWGQGTLVTVSSASTKGPSVFPLAPSSKSTSGGTAALGCLVKDYFPEPVTVSWNSGALTSGVHTFPAVLQSSGLYSLSSVVTVPSSSLGTQTYICNVNHKPSNTKVDKKVEPKSCDKTHTCPPCPAPEAAGAPSVFLFPPKPKDTLMISRTPEVTCVVVDVSHEDPEVKFNWYVDGVEVHNAKTKPREEQYNSTYRVVSVLTVLHQDWLNGKEYKCKVSNKALPAPIEKTISKAKGQPREPQVYTLPPSREEMTKNQVSLTCLVKGFYPSDIAVEWESNGQPENNYKTTPPVLDSDGSFFLYSKLTVDKSRWQQGNVFSCSVMHEALHNHYTQKSLSLSPGK
light: DIQMTQSPSSLSASVGDRVTITCKASQDVSTAVAWYQQKPGKAPKLLIYSASYRYTGVPSRFSGSGSGTDFTLTISSLQPEDFATYYCQQHYSTPWTFGGGTKVEIKRTVAAPSVFIFPPSDEQLKSGTASVVCLLNNFYPREAKVQWKVDNALQSGNSQESVTEQDSKDSTYSLSSTLTLSKADYEKHKVYACEVTHQGLSSPVTKSFNRGEC
notes: also called OGD1.0.0 antibody
B9: the Kd in assay [5] is 2.59 pM; in [9], 2.59 pM; in assay [10], greater than 21 µM. Also, the “IC50 by ELISA compared to OGD1.0.0” value in [6] was 1 fold of OGD1.0.0. Further, the “CAGA EC50” value in assay [1] worked out at 27.3 nM. In addition, the “IC50 by reporter gene assay compared to OGD1.0.0” value in [7] was 1 fold of OGD1.0.0. In addition, the IC50 in assay [3] turned out to be 0.14 nM. Further, the binding result is “no binding (tested: 0-21 µM)” in assay [11], “no binding (tested: 0-270 nM)” in the assay with CD64 (Fc gamma receptor) and “no binding (tested: 0-21 µM)” in assay [12].

B10: OGD1.1.1 humanized anti-GDF-8 antibody (VH1 and VL1) (antibody, human IgG1, kappa)
heavy: EVQLLESGGGLVQPGGSLRLSCAASGFTFSSYAMSWVRQAPGKGLEWVSTISSGGSYTSYPDSVKGRFTISRDNSKNTLYLQMNSLRAEDTAVYYCAKQDYAMNYWGQGTMVTVSSASTKGPSVFPLAPSSKSTSGGTAALGCLVKDYFPEPVTVSWNSGALTSGVHTFPAVLQSSGLYSLSSVVTVPSSSLGTQTYICNVNHKPSNTKVDKKVEPKSCDKTHTCPPCPAPEAAGAPSVFLFPPKPKDTLMISRTPEVTCVVVDVSHEDPEVKFNWYVDGVEVHNAKTKPREEQYNSTYRVVSVLTVLHQDWLNGKEYKCKVSNKALPAPIEKTISKAKGQPREPQVYTLPPSREEMTKNQVSLTCLVKGFYPSDIAVEWESNGQPENNYKTTPPVLDSDGSFFLYSKLTVDKSRWQQGNVFSCSVMHEALHNHYTQKSLSLSPGK
light: DIQMTQSPSSLSASVGDRVTITCKASQDVSTAVAWYQQKPGKAPKLLIYSASYRYTGVPSRFSGSGSGTDFTLTISSLQPEDFATYYCQQHYSTPWTFGQGTKVEIKRTVAAPSVFIFPPSDEQLKSGTASVVCLLNNFYPREAKVQWKVDNALQSGNSQESVTEQDSKDSTYSLSSTLTLSKADYEKHKVYACEVTHQGLSSPVTKSFNRGEC
For the molecule B10, in [1], the “CAGA EC50” value was determined as 26 nM. For the same molecule, the concentration for half-maximal inhibition (IC50) in [3] stood at 0.14 nM. Besides, binding in assay [9] was characterised by a dissociation constant (Kd) of 7.25 pM.

The values are drawn from patent publication US20180057579A1 (Pfizer, published 2018).
